The values that follow come from patent US20260217813A1 (published 2026).

In assay [1] the target is T1, IL-12 (Human IL12 (His Tag)), Sino Biological Cat. No. CT-050-H08H-20 (human, UniProt P29460 23-328; P29459 23-219).
T1 construct: Bought His-tagged p35/p40 heterodimer
T1 sequence (looked up) 1: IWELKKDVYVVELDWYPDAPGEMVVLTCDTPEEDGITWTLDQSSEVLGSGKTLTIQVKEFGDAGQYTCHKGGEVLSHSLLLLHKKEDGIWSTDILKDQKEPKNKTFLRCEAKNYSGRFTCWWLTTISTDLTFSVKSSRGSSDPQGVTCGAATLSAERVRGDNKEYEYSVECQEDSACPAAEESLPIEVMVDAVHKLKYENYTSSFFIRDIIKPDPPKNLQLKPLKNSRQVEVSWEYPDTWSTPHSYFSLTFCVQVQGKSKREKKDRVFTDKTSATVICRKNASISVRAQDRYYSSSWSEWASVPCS
T1 sequence (looked up) 2: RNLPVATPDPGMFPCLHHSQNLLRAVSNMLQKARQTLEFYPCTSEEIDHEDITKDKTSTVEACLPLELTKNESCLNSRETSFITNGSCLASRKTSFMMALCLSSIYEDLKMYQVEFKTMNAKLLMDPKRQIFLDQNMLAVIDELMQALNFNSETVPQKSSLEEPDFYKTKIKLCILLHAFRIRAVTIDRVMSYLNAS
The assay is described as follows: FACS competition, IL-12-His 20 nM on 293T-IL-12RB1&IL-23R cells, antibody 30 µg/mL. As to the method: (§1) 200 μL of 1% PBSA was added into each sample, and the mixture was centrifuged at 700×g for 5 min to discard the supernatant. According to experiment design, correspondingly diluted antibody (highest final concentration of 30 μg/mL, 3-fold dilution, 8 concentrations in total) and human IL-12 (Sino Biological, Cat. No.: CT-050-H08H-20) (final concentration of 20 nM) were mixed at a ratio of 1:1, and a blank control was set. The mixture of antibody and human IL12 was incubated on ice for 30 min and then added to the cell precipitate at 100 μL/sample. The resulting mixture was well mixed and incubated on ice for 60 min. 200 μL of 1% PBSA was added, and the mixture was centrifuged at 700×g for 5 min to discard the supernatant, and then washed twice. Alexa Fluor® 488 anti-His tag antibody (Biolegend, Cat. No.: 652509) was diluted at a ratio of 1:400 and added to each tube at 100 μL. The mixture was well mixed and incubated on ice for 40 min in the absence of light. 200 μL of 1% PBSA was added, and the mixture was centrifuged at 700×g for 5 min to discard the supernatant, and then washed twice. 1% PBSA was added at 200 μL/tube, and the cells were resuspended and transferred to a flow cytometry tube for testing.

In assay [2] the target is T1, IL-12 (Human IL12 (His Tag)), Sino …. The assay is described as follows: FACS competition, IL-12-His 20 nM on 293T-IL-12RB1&IL-23R cells, antibody 10 µg/mL. As to the method:
as §1

For assay [3] the target is unchanged. The assay is described as follows: FACS competition, IL-12-His 20 nM on 293T-IL-12RB1&IL-23R cells, antibody 3.33 µg/mL. As to the method:
as §1

Assay [4] has as its target T2, human IL-23 (IL-23-His-Biotin, Akesobio, 20161209) (human, UniProt Q9NPF7 20-189; P29460 23-328).
T2 construct: His-tagged and biotinylated; also called human IL23-His-Biotin
T2 sequence (looked up) 1: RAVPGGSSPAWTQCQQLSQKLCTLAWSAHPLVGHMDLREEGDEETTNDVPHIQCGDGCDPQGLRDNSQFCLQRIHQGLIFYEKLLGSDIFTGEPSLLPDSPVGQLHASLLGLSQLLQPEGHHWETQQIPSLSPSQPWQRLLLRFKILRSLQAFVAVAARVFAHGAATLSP
T2 sequence (looked up) 2: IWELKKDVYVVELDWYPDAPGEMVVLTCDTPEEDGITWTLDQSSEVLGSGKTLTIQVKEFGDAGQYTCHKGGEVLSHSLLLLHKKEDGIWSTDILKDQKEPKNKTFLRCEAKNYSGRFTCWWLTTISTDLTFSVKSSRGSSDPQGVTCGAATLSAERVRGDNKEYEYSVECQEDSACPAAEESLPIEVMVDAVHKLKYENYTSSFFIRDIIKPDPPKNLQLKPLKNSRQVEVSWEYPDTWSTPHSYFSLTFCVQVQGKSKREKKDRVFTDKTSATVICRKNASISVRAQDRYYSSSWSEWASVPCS
The assay is described as follows: FACS competition, IL-23-His-Biotin 2 µg/mL on 293T-IL-12RB1&IL-23R cells, antibody 0.04 µg/mL. As to the method: (§2) 2.1. […] 200 μL of 1% PBSA was added into each sample, and the mixture was centrifuged at 700×g for 5 min to discard the supernatant. According to experiment design, correspondingly diluted antibody (highest final concentration of 30 μg/mL, 3-fold dilution, 8 concentrations in total) and human IL-23 (IL-23-His-Biotin, Akesobio, 20161209) (final concentration of 2 μg/mL) were mixed at a ratio of 1:1, and a blank control was set. The mixture of antibody and human IL23 was incubated on ice for 30 min and then added to the cell precipitate at 100 μL/sample. The resulting mixture was well mixed and incubated on ice for 60 min. 200 μL of 1% PBSA was added, and the mixture was centrifuged at 700×g for 5 min to discard the supernatant, and then washed twice. FITC Streptavidin (Biolegend, Cat. No.: 405202) was diluted at a ratio of 1:500 and added to each tube at 100 μL. The mixture was well mixed and incubated on ice for 40 min in the absence of light. 200 μL of 1% PBSA was added, and the mixture was centrifuged at 700×g for 5 min to discard the supernatant, and then washed twice. 1% PBSA was added at 200 μL/tube, and the cells were resuspended and transferred to a flow cytometry tube for testing.

Assay [5] has as its target T1, IL-12 (Human IL12 (His Tag)), Sino …. The assay is described as follows: FACS competition, IL-12-His 20 nM on 293T-IL-12RB1&IL-23R cells, antibody 1.11 µg/mL. How it is done:
as §1

For assay [6] the target is unchanged. The assay is described as follows: FACS competition, IL-12-His 20 nM on 293T-IL-12RB1&IL-23R cells, antibody 0.12 µg/mL. How it is done:
as §1

The target in assay [7] is T2, human IL-23 (IL-23-His-Biotin, …). The assay is described as follows: FACS competition, IL-23-His-Biotin 2 µg/mL on 293T-IL-12RB1&IL-23R cells, antibody 0.01 µg/mL. How it is done:
as §2

Assay [8] shares this target. The assay is described as follows: FACS competition, IL-23-His-Biotin 2 µg/mL on 293T-IL-12RB1&IL-23R cells, antibody 0.12 µg/mL. As to the method:
as §2

B1: H5L9 (antibody, human IgG1, kappa, V domains shown)
VH: EVQLVQSGAEVKKPGESLKISCQSSGYSFTTYWIGWVRQMPGQGLEWIGIMSPVDSDIRYNPMFRGQVTMSVDKSSSTAYLQWSSLKASDTAMYYCARRRPGQGYFDFWGQGTMVTVSS
VL: DIQMTQSPSSLSASVGDRVTITCKASQNVGSWLAWYQQKPGKAPKSLIYSASSRQSGVPSRFSGSGSGTDFTLTISSLQPEDFATYYCQQYDIYPFTFGQGTKLEIKR
notes: Humanized anti-human IL-12/IL-23 p40 antibody; IgG1 (P01857) / kappa (P01834) constant regions
For B1, the MFI in assay [1] turned out to be 117; in assay [2], 134; in assay [3], 146; in assay [4] it was 221; in assay [5] it was 157; in assay [6] it was 160. Besides, the MFI in assay [7] was 222; in assay [8], 217.

B2: H5L10 (antibody, human IgG1, kappa, V domains shown)
VH: EVQLVQSGAEVKKPGESLKISCQSSGYSFTTYWIGWVRQMPGQGLEWIGIMSPVDSDIRYNPMFRGQVTMSVDKSSSTAYLQWSSLKASDTAMYYCARRRPGQGYFDFWGQGTMVTVSS
VL: EIVLTQSPATLSASPGERATISCRASQSVGSWLAWYQQKPGQAPRSLIYAASNLQSGIPARFSGSGSGTDFTLTISSLEPEDFAVYYCQQYNIYPYTFGQGTRLEIKR
notes: IgG1/kappa
On to B2, for which the MFI in assay [1] stood at 31.6; in assay [2], 34.1; in assay [3], 40.2; in assay [4], 230; in assay [5] it was 44.6; in assay [6], 151. Also, the results for the MFI in assay [7] and in assay [8] were 223 and 221, respectively.

B3: H5L11 (antibody, human IgG1, kappa, V domains shown)
VH: EVQLVQSGAEVKKPGESLKISCQSSGYSFTTYWIGWVRQMPGQGLEWIGIMSPVDSDIRYNPMFRGQVTMSVDKSSSTAYLQWSSLKASDTAMYYCARRRPGQGYFDFWGQGTMVTVSS
VL: EIVLTQSPATLSASPGERATISCRASQSVSSWLAWYQQKPGQAPRSLIYSASNLQSGIPARFSGSGSGTDFTLTISSLEPEDFAVYYCQQYNIYPYTFGQGTRLEIKR
notes: IgG1/kappa
For B3, the MFI in assay [1] stood at 33; in assay [2], 33.9; in assay [3] it was 42.2; in assay [4] it was 224; in assay [5], 54.3; in assay [6], 145. The MFI in assay [7] and in assay [8] was 219 in each case.

B4: H5L12 (antibody, human IgG1, kappa, V domains shown)
VH: EVQLVQSGAEVKKPGESLKISCQSSGYSFTTYWIGWVRQMPGQGLEWIGIMSPVDSDIRYNPMFRGQVTMSVDKSSSTAYLQWSSLKASDTAMYYCARRRPGQGYFDFWGQGTMVTVSS
VL: EIVLTQSPATLSASPGERATISCRASQSVSSWLAWYQQKPGQAPRSLIYAASNRQSGIPARFSGSGSGTDFTLTISSLEPEDFAVYYCQQYNIYPYTFGQGTRLEIKR
notes: IgG1/kappa
B4: the MFI in assay [1] turned out to be 31.8; in assay [2], 32.4; in assay [3], 31.8; in assay [4], 234; in assay [5], 38.5; in assay [6] it was 133. In addition, the results for the MFI in assay [7] and in assay [8] were 221 and 211, respectively.

B5: H5L14 (antibody, human IgG1, kappa, V domains shown)
VH: EVQLVQSGAEVKKPGESLKISCQSSGYSFTTYWIGWVRQMPGQGLEWIGIMSPVDSDIRYNPMFRGQVTMSVDKSSSTAYLQWSSLKASDTAMYYCARRRPGQGYFDFWGQGTMVTVSS
VL: EIVLTQSPATLSASPGERATISCRASQSVSSWLAWYQQKPGQAPRSLIYAASNLQSGIPARFSGSGSGTDFTLTISSLEPEDFAVYYCQQYNIYPFTFGQGTRLEIKR
notes: IgG1/kappa
As to B5, the MFI in assay [1] was 34.9; in assay [2] it was 46.3; in assay [3], 51.9; in assay [4], 216; in assay [5], 66; in assay [6], 146. The MFI in assay [7] was 218; in assay [8] it was 203.

B6: ustekinumab (trade name Stelara) (antibody, V domains shown)
VH: EVQLVQSGAEVKKPGESLKISCKGSGYSFTTYWLGWVRQMPGKGLDWIGIMSPVDSDIRYSPSFQGQVTMSVDKSITTAYLQWNSLKASDTAMYYCARRRPGQGYFDFWGQGTLVTVSS
VL: DIQMTQSPSSLSASVGDRVTITCRASQGISSWLAWYQQKPEKAPKSLIYAASSLQSGVPSRFSGSGSGTDFTLTISSLQPEDFATYYCQQYNIYPYTFGQGTKLEIK
Consider B6, for which the MFI in assay [1] was 28.7; in assay [2], 31; in assay [3] it was 29.7; in assay [4], 216; in assay [5] it was 31.9; in assay [6], 137. Moreover, the MFI in assay [7] is 219; in assay [8], 211.
